This passage reports Kd and percent of NCP shifted results from article PMC10231317.

Holding throughout (assay): native gel or EMSA
In general terms: Mobility shift assays separate free from complexed probe on a gel.

Assay [1] addresses H3K18CubK23Cub nucleosome core particle (UniProt P68431).
Assay [2] concerns the target H3K18Cub nucleosome core particle (UniProt P68431).
Assay [3] addresses H3K23Cub nucleosome core particle (UniProt P68431).
Assay [4] deals with unmodified nucleosome core particle (recombinant H3, H2A, H2B, H4 octamer on He601 DNA) (UniProt P68431).

As usually defined, the Kd is the free concentration of one partner at which half of the binding sites on the other are occupied at equilibrium, for simple one-to-one binding. For the substance “N-terminal truncated mouse DNMT1 (residues 291–1620) (from UniProt P13864 291-1620) (enzyme)”, the Kd stood at 13 nM in assay [1], 116 nM in assay [2], 136 nM in assay [3] and 193 nM in assay [4]. The percent of NCP shifted at 250 nM mDNMT1 in assay [2] and in assay [3] was 70% in each case.
